The text below walks through data of patent US20250355001A1, “METHOD FOR DETECTING A TAU PROTEIN FRAGMENT IN A SAMPLE” (GTINVENT LIMITED, priority 2022, published 2025).

The target of data set [1] is T1, hT40 (T441, SEQ ID NO: 1) (Homo sapiens, UniProt P10636).
T1 construct: Full length tau (hT40)
Put plainly: Biacore X100 SPR kinetics of scAbs for hT40. It counts as binding. To be noted: Table 23; scAb captured, T441 (hT40) analyte; 1:1 model. Put shortly:
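Captured scAb on anti-HuCk CM5 surface (flow cell 1 as reference) in HBS-EP+, capture set for theoretical RMax 100 RU; hT40 injected multi-cycle (0.15625–100 nM) or single-cycle (6.25–100 nM), 120 s association, 420 s dissociation, glycine pH 2.0 regeneration. Kinetics and affinity from 1:1 binding model fit.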
For orientation: In SPR one partner is held on a chip, and binding of the other changes the refractive index at the surface.

The next data set deals with T2, htau40 (Homo sapiens, UniProt P10636).
T2 construct: Full length tau (hT40)
T2 sequence (P10636 1-441 isoform P10636-8): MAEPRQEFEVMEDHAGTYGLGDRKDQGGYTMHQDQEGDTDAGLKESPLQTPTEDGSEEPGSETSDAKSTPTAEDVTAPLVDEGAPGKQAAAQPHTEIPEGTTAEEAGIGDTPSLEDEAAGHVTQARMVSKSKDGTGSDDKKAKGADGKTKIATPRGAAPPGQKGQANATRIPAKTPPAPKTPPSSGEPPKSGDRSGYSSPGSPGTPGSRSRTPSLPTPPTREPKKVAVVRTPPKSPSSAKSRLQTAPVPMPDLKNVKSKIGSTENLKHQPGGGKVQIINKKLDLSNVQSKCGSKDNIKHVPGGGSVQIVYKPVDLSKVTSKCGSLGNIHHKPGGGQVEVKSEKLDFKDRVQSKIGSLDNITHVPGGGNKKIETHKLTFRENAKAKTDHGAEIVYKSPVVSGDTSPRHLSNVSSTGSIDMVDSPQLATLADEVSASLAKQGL
As to the kind of experiment: Biacore X100 SPR kinetics of anti-tau mAbs on immobilised htau40. In kind it is binding. To be noted: Table 27; mAb format, immobilised htau40. A digest of the protocol:
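Htau40 amine-coupled to CM5 chip (~250 RU, pH 4.0 immobilisation), reference flow cell subtracted; mAb injected at 0.78–25 nM in HBS-EP+, 120 s association, 600 s dissociation, glycine pH 1.5 regeneration. Kinetic and affinity constants from 1:1 binding model fit.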

The test system of data set [2] is tau fragments in plasma of WT, L1 and L66 mice. As to the kind of experiment: Capture ELISA on transgenic mouse plasma. The following applies: Line66 transgenic model. The protocol: Plasma samples from WT, L1, L66+/− and L66+/+ of various ages (1.5-9 months) were taken as described. Mice were terminally anaesthetized using an overdose of sodium pentobarbital and blood was collected through cardiac puncture through a Plastipak syringe pre-rinsed with heparinised saline heparin (10 U/ml) (Heparin sodium salt; Sigma-Aldrich) and transferred into a plastic vial containing lithium heparin anticoagulant (Sarstedt Ltd.) Blood samples, kept on ice for no more than 30 minutes, were centrifuged to obtain plasma at 2000× g for 5 minutes at 6° C. Plasma samples were stored at −20° C.
For mouse plasma capture ELISA, 100 μL capture mAb was coated to the bottom of a black nunc 96 well ‘maxisorp’ plate at 2.5 μg/ml and incubated for 1 hour at 37° C. After washing and blocking as normal, several known standard solutions were set up in triplicate starting at 20 ng/ml of the desired protein before double diluted in the remaining wells. Mouse samples were added to wells in duplicate with a blank in between each sample group. Line1 plasma was diluted 1:10 before addition to plate to account for its high concentration while other samples were diluted 1:2 to account for potential matrix effects. […] The ELISA was developed using SuperSignal ELISA Femto Substrate (Thermo Scientific) and total luminescence was read on Clariostar Plus plate reader (BMG Labtech). […]
In general terms: An ELISA detects its analyte on a solid surface through an enzyme-linked reagent.

In data set [3] the test system is hT40, dGA, dGAE and truncated tau fragments. Put plainly: Binding ELISA / epitope mapping of anti-tau scAbs with truncated tau proteins and 13mer peptides. The arrangement: species or system human. Put shortly: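 Serially double-diluted scAbs were applied to 2% MPBS-blocked wells carrying either 1 μg/ml full-length or truncated tau, or biotinylated 13mer peptides (1 μg/ml) captured on 5 μg/ml streptavidin. Absorbance after HRP anti-human C kappa secondary gave the binding signal.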

The target of another data set is aggregated dGAE (Homo sapiens, UniProt P10636). As to the kind of experiment: Capture ELISA ranking mAbs for capture of dGAE aggregates. It counts as binding. To be noted: capture mAb 1 μg/ml; 800 nM aggregated dGAE. The protocol:
The aggregation cascade of natively unfolded tau into insoluble filaments is a defining pathological feature of AD. Therefore, it is logical to target aggregated tau filaments for both therapeutic and diagnostic purposes. The following experiment was performed to assess the ability of our dGA mAb panel to bind aggregated dGAE using a capture ELISA method. Aggregates were prepared by incubating 100 μM dGAE and 10 mM dTT for 24 h at 37° C. with shaking at 700 RPM. The following day, dGAE aggregates were centrifuged at 17,000×g for 20 min and the supernatant was removed. The remaining pellet was washed with 10 mM phosphate buffer and centrifuged as above. Washing was repeated a further two times to remove any remaining dGAE monomer. The dGAE pellet was resuspended in 100 μl of 10 mM phosphate buffer. (Using a separate capture ELISA based quantification, we have worked out the efficiency of our dGAE aggregation as 80%)
Following washing, 800 nM aggregated dGAE was added to the designated wells, double diluted across the plate and incubated for 1 h at RT. The plate was washed again and 1 μg/ml S1G2 scAb was added as detection antibody and incubated for 1 h at RT. To the row where S1G2 mAb was used for capture, […] s1D12 scAb was added as […] instead of S1G2. The assay was developed using HRP labelled HuCK as described previously.

“And” between values parts separate entries of the source, which are not always exact repeats. Equal values may be shown once.

T1 sequence (P10636 1-441 isoform P10636-8): as above
Chain of aggregated dGAE (P10636 614-708): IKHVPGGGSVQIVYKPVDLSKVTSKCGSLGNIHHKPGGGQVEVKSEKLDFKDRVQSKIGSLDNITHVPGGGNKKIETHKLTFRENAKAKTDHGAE

B1: CB7: human-specific N-terminal anti-tau clone, Table 10; SEQ ID NO: 364 (protein)
scFv: QVQLQESGPSLVKPSQTLSLTCTVSGFSLTNYRVGWVRQAPGKALEWVSNIRSGGTTWYNPALKSRLSITADTSKSQVSLSLSSVTTEDTAVYYCARDSSGDLYAYDYWGPGLLVTVSSEGKSSGASGESKVDDQAVLTQPSSVSRSLGQSVSMTCSGSSSNVGYGNYMAWFQQVPGSAPKLLIYGATSRASGVPDRFSGSRSGNTATLTISSLQAEDEADYYCASYDSTSGGVFGSGTRLTVLG
modifications: CB7 amino acid sequence
Consider B1, for which the results for the “ka” value (in data set [1]; in the data set with htau40) were 133400 M⁻¹ s⁻¹ and 2.568e+06 M⁻¹ s⁻¹, respectively. Besides, the “kd” value in data set [1] was found to be 0.0006936 s⁻¹; with htau40, 0.009451 s⁻¹. The “cross reaction with endogenous mouse tau” value in data set [2] is “does not cross react with endogenous mouse tau protein”. Also, the “Tau proteins/fragments with positive scAb reactivity” value in data set [3] (Table 17, 'C' group scAbs, binding ELISA) is “hT40, 1-49, 1-155, 1-319”. Moreover, the “Shortest region bound on hT40” value in data set [3] (Table 17, 'C' group scAbs, incl. 13mer peptides) is 13-25. For the same molecule, the Epitope in data set [3] (Table 26 summary, top scAbs, residues of hT40) was 13-25; in data set [3] (residue numbers of SEQ ID NO: 1 (hT40), CDR Tables 1-11), 13-25. In addition, the “Detection scAb (Epitope)” value in data set [3] (Table 28 (LoD table), residues of hT40) is “CB7 (13-25)”. For the same molecule, the “binding region on hT40” value in data set [3] (amino acid residues of hT40) was 13-25 and 13-26. Moreover, in data set [3] (second Table 26, own antibodies), the “Binding region hT40” value is “(Binding region hT40 13-25)”.

B2: E2E8 mAb: E2E8 reformatted; heavy chain SEQ ID NO: 493, light chain 494 (antibody)
heavy: QVQLQESGPSLVKPSQTLSLTCTVSGFSLTDRGVAWVRQAPGKALEWVGTMRSGGTIDYNPALKSRLSITRDTSKSQVFLSLSSVTTEDMAMYYCARGYLSGDRYAWGRGLLVTVSSAKTTAPSVYPLAPVCGDTTGSSVTLGCLVKGYFPEPVTLTWNSGSLSSGVHTFPAVLQSDLYTLSSSVTVTSSTWPSQSITCNVAHPASSTKVDKKIEPRGPTIKPCPPCKCPAPNLLGGPSVFIFPPKIKDVLMISLSPIVTCVVVDVSEDDPDVQISWFVNNVEVHTAQTQTHREDYNSTLRVVSALPIQHQDWMSGKEFKCKVNNKDLPAPIERTISKPKGSVRAPQVYVLPPPEEEMTKKQVTLTCMVTDFMPEDIYVEWTNNGKTELNYKNTEPVLDSDGSYFMYSKLRVEKKNWVERNSYSCSVVHEGLHNHHTTKSFSRTPGK
light: QAVLTQPSSVSKSLGQSVSIACSGSRSDIGYGNYVSWFQQIPGSAPKLLIYDTNTRASGVPDRFSGARSGNTATLTINSLQAEDEADYYCANIDSSRSHLFGSGTRLTVLGGQPKSSPSVTLFPPSSEELETNKATLVCTITDFYPGVVTVDWKVDGTPVTQGMETTQPSKQSNNKYMASSYLTLTARAWERHSSYSCQVTHEGHTVEKSLSRADCS
modifications: E2E8 mAB Heavy Chain; E2E8 mAB Light Chain
As to B2, the “ability to capture dGAE aggregates” value with aggregated dGAE is listed as “most efficient at capturing aggregated dGAE”.
